Some results are limits rather than exact numbers.

Results on one molecule are retold here after patent US20140234351A1, “CANCER VACCINES AND VACCINATION METHODS” (ImmunoCellular Therapeutics, Ltd., priority 2013, published 2014).

The target of the assay is HLA-A*0201 molecules on TAP-deficient T2 cells (human). Kind of assay: T2 cell binding assay, fluorescence index (MFI peptide - MFI untreated)/MFI untreated. The following applies: remark: other sources report otherwise.

As to VMAGVGSPYV [HER2/neu 773-782 HLA-A2 peptide], the MFI index is > 1.5.
